The values below come from patent publication US20200325187A1 (Genentech, published 2020).

The target of this assay is T1, VEGF-D (human, UniProt O43915 93-201, limits assumed).
T1 sequence (looked up): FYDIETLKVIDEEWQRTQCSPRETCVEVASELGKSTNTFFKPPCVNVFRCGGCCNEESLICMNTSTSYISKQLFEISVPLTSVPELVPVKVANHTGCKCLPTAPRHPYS
Kind of assay: competition ELISA: VEGF-D coated, constant Flt-4 receptor, peptide titrated. In general terms: In an ELISA, binding on a coated surface is turned into a signal by an enzyme label.

B1: VEGF_CKP9.54.90 (designed binder)
chain: GCNIMLPFWGCGRDFECLAGCVCQYYQSCG
As for B1, the binding result is “no binding (tested: 5 µM)”.
